Test results published in patent US7402570 (Johns Hopkins, dated 2008).

Molecular target: T1, human p53 protein, full length (human, UniProt P04637 1-393)
T1 construct: range 1-393; it is not clear whether that entry is whole p53 or the peptide, so it is not used here
Assay: yeast two-hybrid, lexA-responsive β-galactosidase reporter; (+) colonies turned blue following 24 hours (strain 4)

T1 sequence (P04637 whole entry): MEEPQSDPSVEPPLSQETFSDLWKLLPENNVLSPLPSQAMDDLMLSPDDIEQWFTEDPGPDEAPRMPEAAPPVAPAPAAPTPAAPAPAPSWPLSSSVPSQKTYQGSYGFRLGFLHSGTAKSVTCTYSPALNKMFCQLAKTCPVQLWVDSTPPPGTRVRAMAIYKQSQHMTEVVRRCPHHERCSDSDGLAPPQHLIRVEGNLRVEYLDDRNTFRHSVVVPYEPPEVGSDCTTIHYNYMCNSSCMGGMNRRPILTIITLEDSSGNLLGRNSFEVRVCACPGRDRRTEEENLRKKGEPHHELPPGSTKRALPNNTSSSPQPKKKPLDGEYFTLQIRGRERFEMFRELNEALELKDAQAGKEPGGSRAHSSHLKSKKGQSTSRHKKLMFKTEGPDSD

B1: lexA-MDM2 (1-118) (other, not shown: small tags and cut ends)
chain: MCNTNMSVPTDGAVTTSQIPASEQETLVRPKPLLLKLLKSVGAQKDTYTMKEVLFYLGQYIMTKRLYDEKQQHIVYCSNDLLGDLFGVPSFSVKEHRKIYTMIYRNLVVVNQQESSDS
notes: Genetically engineered clone, expressed in yeast; also called MDM2 codons 1 to 118 fused to lexA
  binding result: binds
